Measurements as given in patent US8114412B2, “T. cruzi-derived neurotrophic agents and methods of use therefor” (priority 1999, dated 2012).
Where a chain is given by its changes, count along the chain named. “Also recorded” adds a separate entry of the source.

B1: TS-CC-47: recombinant fragment consisting of amino acid residues 79-478 of TS (SEQ ID NO:2) (protein, listed as Trypanosoma cruzi)
chain: MVAIADARYDTSNDNSLIDTVAKYSVDDGETWETQIAIKNSRVSSVSRVVDPTVIVKGNKLYVLVGSYYSSRSYWSSHGDARDWDILLAVGEVTKSTAGGKITASIKWGSPVSLKKFFPAEMEGMHTNQFLGGAGVAIVASNGNLVYPVQVTNKKKQVFSKIFYSEDDGKTWKFGKGRSDFGCSEPVALEWEGKLIINTRVDWKRRLVYESSDMEKPWVEAVGTVSRVWGPSPKSNQPGSQSSFTAVTIEGMRVMLFTHPLNFKGRWLRDRLNLWLTDNQRIYNVGQVSIGDENSAYSSVLYKDDKLYCLHEINTDEVYSLVFARLVGELRIIKSVLRSWKNWDSHLSSICTPADPAASSSESGCGPAVTTVGLVGFLSGNASQNVWEDAYRCVNASTAN
B2: TS-H32 (protein, listed as Trypanosoma cruzi)
chain: KKKQVFSKIFYSEDDGKTWKFGEGRSAFGCSEAVALEWEGKLIINTRVDYRRRLVYESSDMGNTWLEAVGTLSRVWGPSPKSNQPGSQSSFTAVTIEGMRVMLFTHPLNFKGRWLRDRLNLWLTDNQRIYNVGQVSIGDENSAHSSVLYKDDKLYCLHEINSNEVYSLVFARLVGELRIIKSVLQSWKNWDSHLSSICTP
B3: TS-154: recombinant catalytically active trans-sialidase construct from clone 154 with 5 tandem repeat units (protein, listed as Trypanosoma cruzi)
chain: B2 chain with D15E, A27D, A33P, T64S, L66V, H144Y
B4: TS-Cat-47: recombinant fragment consisting of amino acid residues 79-415 of TS (SEQ ID NO:2) (protein, listed as Trypanosoma cruzi)
chain: MVAIADARYDTSNDNSLIDTVAKYSVDDGETWETQIAIKNSRVSSVSRVVDPTVIVKGNKLYVLVGSYYSSRSYWSSHGDARDWDILLAVGEVTKSTAGGKITASIKWGSPVSLKKFFPAEMEGMHTNQFLGGAGVAIVASNGNLVYPVQVTNKKKQVFSKIFYSEDDGKTWKFGKGRSDFGCSEPVALEWEGKLIINTRVDWKRRLVYESSDMEKPWVEAVGTVSRVWGPSPKSNQPGSQSSFTAVTIEGMRVMLFTHPLNFKGRWLRDRLNLWLTDNQRIYNVGQVSIGDENSAYSSVLYKDDKLYCLHEINTDEVYSLVFARLVGELRIIKSVL
B5: cruzipain: T. cruzi protease (protein, UniProt P25779 123-467, looked up)
Cruzipain: APAAVDWRARGAVTAVKDQGQCGSCWAFSAIGNVECQWFLAGHPLTNLSEQMLVSCDKTDSGCSGGLMNNAFEWIVQENNGAVYTEDSYPYASGEGISPPCTTSGHTVGATITGHVELPQDEAQIAAWLAVNGPVAVAVDASSWMTYTGGVMTSCVSEQLDHGVLLVGYNDSAAVPYWIIKNSWTTQWGEEGYIRIAKGSNQCLVKEEASSAVVGGPGPTPEPTTTTTTSAPGPSPSYFVQMSCTDAACIVGCENVTLPTGQCLLTTSGVSAIVTCGAETLTEEVFLTSTHCSGPSVRSSVPLNKCNRLLRGSVEFFCGSSSSGRLADVDRQRRHQPYHSRHRRL
B6: TS-F-47: recombinant TS fragment, amino acid residues 79-666 of SEQ ID NO:34 (protein, listed as Trypanosoma cruzi)
chain: GDARDWDILLAVGEVTKSTAGGKITASIKWGSPVSLKKFFPAEMEGMHTNQFLGGAGVAIVASNGNLVYPVQVTNKRKQVFSKIFYSEDDGKTWKFGKGRSDFGCSEPVALEWEGKLIINTRVDWKRRLVYESSDMEKPWVEAVGTVSRVWGPSPKSNQPGSQTSFTAVTIEGMRVMLFTHPLNFKGRCVRDRLNLWLTDNQRIYNVGQVSIGDENSAYSSVLYKDDKLYCLHEINTDEVYSLVFARLVGELRIIKSVLRSWKNWTATCPAFAPLLIQPLRRQRVVVVPLSPRLVLLAFCRQRLPKRMGGSYRCVNASTANAERVRNGLKFAGVGGGALWPVSQQGQNQRYRFANHAFTLVASVTIHEAPRAASPLLGASLDSSGGKKLLGLSYDEKHQWQPIYGSTPVTPTGSWETGKRYHLVLTMANKIGSVYIDGELLEGSGQTVVPDGRTPDISHFYVGGYKRSDMPTISHVTVNNVLLYNRRQLNTEEIRTLFLSQDLIGTEAHMDSSSDSSAHSTPSTPADSSAHSTPSTPVDSSAHSTPSTPADSSAHGTPSTPVDSSAHGTPSTPADSSAHGTPSTPVDS

Key:
N18 cells = experiment: Neurite outgrowth assay in N18 cells; type: cell-based; conditions: immobilized proteins coated at 500 μg/ml, 17 hours (FIG. 3A)
Method: FIG. 3A is a graph showing that neurite outgrowth in N18 cells is induced by immobilized laminin (Ln), immobilized TS and immobilized fragments of TS. Proteins were immobilized by incubating plates which contained wells filled with solutions of the proteins (protein concentration was 500 μg/ml) at 4° C. overnight. The protein solutions were removed and the plates were further incubated with 1% BSA at room temperature for one hour. N18 cells were cultured in the coated wells in serum-free RPMI-1640/0.2% BSA for 17 hours, and neurite outgrowth was measured by phase-contrast microscopy. […] Ln, laminin; TS, purified T. cruzi trans-sialidase; 7F, recombinant TS from clone 7F; 19Y, recombinant TS from clone 19Y; TS-F, recombinant fragment consisting of amino acid residues 33-666 of TS (SEQ ID NO:2); TS-CC-47, recombinant fragment consisting of amino acid residues 79-478 of TS (SEQ ID NO:2); TS-Cat-47, recombinant fragment consisting of amino acid residues 79-415 of TS (SEQ ID NO:2); BSA, bovine serum albumin.
(§1) 96-well microtiter plates were coated overnight at 4° C. with the TS or peptides or fragments thereof, or with control proteins laminin (Ln) or bovine serum albumin (BSA) at 500 μg/ml. After removing the compounds, the plates were further incubated with 1% BSA for 1 hour at room temperature and immediately used as substratum for PC12 or N18 (Prasad, K. N., Biol Rev Camb Philos Soc, 66:431-451 (1991)) cells in serum-free RPMI/0.2% BSA. Neurite outgrowth was measured using a phase-contrast microscope 17 hours later.

PC12 cells [1] = experiment: Trophic factor withdrawal-induced apoptosis of PC12 cells (DAPI/TUNEL); type: cell-based, rat; conditions: serum-free RPMI-1640/0.2% BSA, 17 hours, DAPI or TUNEL
Description: (§2) PC12 cells were obtained from ATCC (Manassas, Va. (Accession No. CRL-1721)) and cultured on collagen-coated dishes in RPMI 1640 supplemented with 10% horse serum and 5% fetal bovine serum (Greene, L. A. and Tishler, A. S., Proc. Natl. Acad. Sci. USA, 73: 2424-2428 (1976)). For differentiation and survival experiments, cells were washed three times in serum-free RPMI/0.2% BSA, plated in the same medium in collagen-coated plastic dishes at 2×10^5/ml, without and with growth factors, TS, recombinant proteins, synthetic peptides, for the time and concentrations indicated in the Figures.
Cell staining with 4,6-diamino-2-phenylindole (DAPI). Cells were fixed with 4% formaldehyde in PBS for 5 minutes, washed with PBS, stained with 10 μg/ml DAPI (Sigma) for 2 minutes, washed with PBS, and visualized under UV light using a fluorescent microscope. About 300-400 cells were examined under the microscope to determine the percentage of apoptotic cells.
Cell DNA nick end labeling (TUNEL) (Gavrieli, Y., et al., J. Cell. Biol. 119: 493-501 (1992)) assay was performed using a kit purchased from Boehringer Mannheim as described by the manufacturer.
Protection against apoptosis of PC12 cells in serum-free medium containing a test agent (agent N)(e.g., protection induced by TS, TS fragments, NGF or other growth factors), was calculated by the formula: 100%-[(apoptosis(%) of cells kept in RPMI containing test agent N÷apoptosis (%) of cells kept in RPMI)×100%]. Testing the effect of wortmannin (Sigma) and LY294002 (Sigma) in inhibiting the neuroprotection of TS was performed following the protocol described by others (Yao and Cooper, Science, 267:2003-2006 (1995); D'Mello et al., J. Neurosci 17:1548-1560 (1997)). In brief, PC12 cells were switched from growth medium to RPMI without and with TS or various other growth factors. After 24 hr, wortmannin and LY294002 were added to the cultures. After another 24 hrs, cells were examined for apoptosis by the DAPI assay, as above.

Trans-sialidase assay = type: biochemical
Method: The trans-sialidase assay was performed as described (Scudder et al., J. Biol. Chem. 268:9886-9891 (1993)) with slight modifications. Various amounts of intact enzyme or enzyme fragments were added to 50 mM PBS, Ph 7.2, containing 15% fetal calf serum and […] of [^14C]N-acetyllactosamine (4×10^5 dpm), 50 μg BSA and 0.02% NaN3 in a volume of 60 μl. After incubation for a predetermined amount of time at room temperature, the reaction mixture was diluted to 1.0 ml with distilled water and applied to a column containing 1.0 ml Q-Sepharose equilibrated with water. Sialylated product was eluted with 1 M NaCi and quantified by scintillation counting.
TS enzymatic activity was measured by the sialylation of the acceptor ^14C-labeled N-acetyllactosamine on anion exchange resins (Scudder, P. et. al., J. Biol. Chem. 268:9886-9891 (1993)). Recombinant TSA-1, was expressed on insect sf9 cells and purified from serum-free medium by ion exchange chromatography (monoQ) and preparative SDS-PAGE (Wrightsman, R. A. et al., J. Immunol., 153:3148-3154 (1994).

[2] = test system: peripheral blood mononuclear cells (PBMC); experiment: IL-6 secretion by PBMC (ELISA); type: cell-based, human; design: IL-6 secretion by PBMC: dose or concentration left out as unconfirmed; conditions: 24 hrs culture
Method: (§3) Primary cultures of human intestinal microvascular endothelial cells (HIMEC) isolated from normal jejunal mucosa/submucosal tissue were prepared as described (Strong et al., Gastroenterology 114: 1244-1256 (1998)). The HIMEC were cultured in fibronectin-coated plasticware in MCDB medium (Sigma) supplemented with 20% FBS, 90 μg/ml heparin and 50 μg/ml endothelial cell growth factor (Sigma). T-24 cells (ATCC Accession No. HTB-4) were cultured in M199 medium supplemented with 10% FBS. PBMC were purified by Ficoll-Paque gradient as described (Current Protocols in Immunology, pp 7.1.1-7.1.2). Vero cells (ATCC Accession No. CCL-81) were grown in RPMI medium with 5% Nu serum and infected with the Silvio X-10/4 of T. cruzi as described previously (Chuenkova et al., J. Exp. Med. 181: 1693-1703, (1995)).
(§4) Endothelial cells and T-24 cells were plated on 24-well plates at a density of 1×10^3 cells/well, while peripheral blood mononuclear cells (PBMC) were plated in the similar wells at 1×10^6/well. Triplicat cultures of cells were incubated test agents for a predetermined amount of time. […] Cytokines and chemokines released in the culture supernatants were measured by ELISA assay following the instructions of the manufacturer (Endogen). The cytokines tested were IL-1β, IL-4, IL-8, IL-10, IL-12, IFN-γ, TNF-α, and the chemokines RANTES and MCP-1. Negative controls were cells incubated in medium containing polymixin B at 10 μg/ml, and positive controls were cells incubated with bacterial LPS at the low ng/ml range (for PBMC or HIMEC) or in the μg/ml range for carcinoma T-24 cells. In some experiments, IL-1β, or TNFα were used as positive control for cytokine release.
TR peptides (Table 2) were synthesized at the Tufts Synthesis Facility (Boston, Mass.). Each peptide was purified by HPLC, and the number of amino acids and molecular weight of each peptide verified by mass spectrometry. Peptides were dissolved in growth medium (10% FCS in RPMI) and added at various concentrations to 1×10^6 PBMC/well in 24-well plates. After 24 hrs, IL-6 was assayed by ELISA in the conditioned supernatants.

[3] = test system: human bladder carcinoma T-24 cell line; experiment: IL-6 secretion by T-24 carcinoma cells (ELISA); type: cell-based; conditions: 24 hours culture
Method: as §3, §4

PC12 cells [4] = experiment: Neurite outgrowth assay in PC12 cells; type: cell-based, rat; conditions: neurite outgrowth assay, concentration not given
Description: as §2, §1

| Molecule | neurite outgrowth in N18 cells (N18 cells) | protection of PC12 cells from apoptosis induced by trophic factor withdrawal (PC12 cells [1]) | trans-sialidase enzymatic activity (Trans-sialidase assay) | IL-6 secretion by PBMC [2] | IL-6 secretion by T-24 cells [3] | neurite outgrowth in PC12 cells (PC12 cells [4]) |
| --- | --- | --- | --- | --- | --- | --- |
| B1 | did not substantially reduce neurite outgrowth; also recorded: active | active |  |  |  |  |
| B2 |  |  | enzymatically-inactive | stimulating IL-6 secretion | stimulating IL-6 secretion |  |
| B3 |  |  | enzymatically-active | as powerful as enzymatically-inactive TS-H32 in stimulating IL-6 secretion | as powerful as enzymatically-inactive TS-H32 in stimulating IL-6 secretion |  |
| B4 | inactive in stimulating neurite outgrowth | promoted the survival of the PC12 cells |  |  |  | did not promote neurite outgrowth |
| B5 |  |  |  |  |  | did not induce neurite extension |
| B6 | as effective as the native enzyme in stimulating neurite outgrowth; also recorded: active | active | enzymatically inactive |  |  |  |
